Reference: patent US7700353B2, “Compositions and methods for inducing apoptosis in tumor cells” (E-P Therapeutics, Inc., priority 1998, dated 2010)

B1: hEb: chemically synthesized human Eb peptide of pro-IGF-I, 77 amino acid residues (SEQ ID NO:1) (peptide, listed as Homo sapiens)
chain: RSVRAQRHTDMPKTQKYQPPSTNKNTKSQRRKGWPKTHPGGEQKEGTEASLQIRGKKKEQRREIGSRNAECRGKKGK
B2: rtEa-4: recombinant Ea-4 peptide of rainbow trout pro-IGF-I, 74 amino acid residues (SEQ ID NO: 2) (protein)
chain: RSVRAQRHTDMPRTPKVSTAVQNVDRGTERRTAQHPDKTKTKKKPLSGHSHPSCKEVHQKNSSRGNTGGRNYRM
modifications: Oncorhynchus mykiss

Tests used:
[1] = tested on: neuroblastoma SK-N-F1 cells; assay: Soft agar colony formation (hEb peptide); type: cell-based, human; conditions: 3.2 μM
Experimental: The effect of hEb-peptide on in vitro colony formation was tested in the presence or absence of either the mature hlGF-I or fetal bovine serum (FIG. 12). Human neuroblastoma SK-N-F1 cells (10^4) were mixed with 0.4% soft agar supplemented with or without hEb peptide (3.2 µM), IGF-I (5 nM) and/or fetal bovine serum (2.5%), as indicated. The cell mixtures were seeded on top of a solidified basal medium DMEM/F12 (1:1) containing 0.5% agar. Medium supplemented with various peptides or serum were overlaid on top of the solidified cell layer followed by a two-week period incubation at 37° C. in a 5% CO2 humidified incubator. The percentage of cells formed into colonies with a diameter greater than 100 µm Macpherson, Tissue culture methods and applications, pp 276-80: N.Y. Academic Press, 1973) were scored in triplicate and subjected to Student t-test analysis. At least three independent assays under each treatment conditions were carried out.

293GP cells = assay: Cell attachment assay; type: cell-based, human; conditions: 0.8 μM, serum-free medium, four days, after shaking
Experimental: To confirm whether treatment of transformed cells with the Ea-4 peptide could result in increased attachment of the cells to the culture dish, 293GP cells were cultured in a serum-free basal medium supplemented with Ea-4-peptide (0.8 µM) or 10% FBS, respectively, in 6-well culture chambers. After four days, the culture medium was removed, and cells were rinsed twice with PBS containing 0.02% EDTA, fresh PBS was added, and the culture plates shaken 20 times manually.

293GP or ZR-75-1 cells = assay: Morphological change by Ea-2, Ea-3, Ea-4 peptides; type: cell-based, human; conditions: 0.8 μM, 24 hours
Experimental: Approximately 1-2×10^5 of MCF-7, ZR-75-1, HT-29, HepG2, 293GP, HC or SK-N-F1 cells re-suspended in their respective basal medium without fetal bovine serum (FBS) were plated in a 6-well culture chamber. Prior to plating cells, an acid-washed coverslip was placed in each well of the culture chamber. Recombinant rainbow trout E-peptides (rtEa-2, rtEa-3 or rtEa-4 peptide at 0.8 µM), human IGF-I (hIGF-1, 2.5 nM) or the same amount of control protein was added to each well and the cell cultures were incubated at 37° C. under a humidified atmosphere of 5% CO2. The control protein was prepared from E. coli cells carrying the expression plasmid but without the E-peptide gene according to the purification method described by Tian et al. (1999). Coverslips were removed from the culture chamber 24 hours after initiation of the treatment and observed under an Olympic inverted microscope equipped with differential interference phase contrast objective lenses or phase contrast objective lens (final magnification, 200×). The morphological change assay was performed at least 10 times with different batches of Ea-4 peptide preparations.
Cells were again cultured as described above. Twenty-four hours after treatment with 0.8 µM of E-peptides or the control protein, the cells were observed under an Olympic inverted microscope equipped with differential interference phase contrast objective lenses (200× magnification). […] To confirm this hypothesis, synthetic peptides specific to Ea-1-, Ea-2-, Ea-3- and Ea-4-peptide (Ea-1sp, Ea-2sp, Ea-3sp and Ea-4sp) specific sequence (see FIG. 1) were prepared and tested for their activities to induce morphological change in ZR-75-1 cells. For FIG. 6, cells were cultured in F12/DME medium without FBS as described above. Twenty-four hours after treatment with 0.8 µM of synthetic peptide containing Ea-1 sp, Ea-2sp, Ea-3sp or Ea-4sp specific sequence or the control protein, the cells were observed under an Olympic inverted microscope equipped with differential interference phase contrast objective lenses (200× magnification).

[2] = tested on: Caspase-3 mRNA in SKOV-3(A); assay: Induction of caspase-3 mRNA; type: cell-based, human
Excerpt: (§1) Induction of caspase-3 has been widely used as an indicator of cells undergoing apoptosis.

[3] = tested on: Caspase-3 mRNA in MDA-MB-231; assay: Induction of caspase-3 mRNA; type: cell-based, human
Excerpt: as §1

[4] = tested on: Caspase-3 mRNA in OVCAR-3(B); assay: Induction of caspase-3 mRNA; type: cell-based, human
Excerpt: as §1

[5] = tested on: cultured BALB/3T3 fibroblast; conditions: recombinant peptides; cited from earlier work

Molecule | inhibition of colony formation ([1]; absence of serum and growth factors, colonies >100 μm) | inhibitory effect on anchorage-independent growth ([1]; over all medium conditions) | inhibition of colony formation ([1]; presence of FBS (2.5%)) | inhibition of colony formation ([1]; presence of hIGF-I (5 nM)) | attachment of cells to the culture chamber (293GP cells) | induction of morphological change (293GP or ZR-75-1 cells) | Caspase-3 mRNA ([2]; 0.04 μM) | Caspase-3 mRNA ([2]; 0.20 μM) | Caspase-3 mRNA ([2]; 1.00 μM) | Caspase-3 mRNA ([2]; 5.00 μM) | Caspase-3 mRNA ([3]; 0.04 μM) | Caspase-3 mRNA ([3]; 0.20 μM) | Caspase-3 mRNA ([3]; 1.00 μM) | Caspase-3 mRNA ([3]; 5.00 μM) | Caspase-3 mRNA ([4]; 0.04 μM) | Caspase-3 mRNA ([4]; 0.20 μM) | Caspase-3 mRNA ([4]; 1.00 μM) | Caspase-3 mRNA ([4]; 5.00 μM) | mitogenic activity [5]
B1 | 64% | 59-73% | 73% | 59% | – | – | – | – | – | – | – | – | – | – | – | – | – | – | –
B2 | – | – | – | – | remained attached to the culture chamber | able to induce morphological change | 3.0 × 10^5 ± # molecules / μg total RNA | 2.5 × 10^5 ± # molecules / μg total RNA | 3.7 × 10^5 ± # molecules / μg total RNA | 2.2 × 10^5 ± # molecules / μg total RNA | 3.9 × 10^5 ± 3.8 × 10^4 molecules / μg total RNA | 3.4 × 10^5 ± 3.1 × 10^4 molecules / μg total RNA | 4.6 × 10^5 ± 9.5 × 10^4 molecules / μg total RNA | 5.8 × 10^5 ± 1.3 × 10^4 molecules / μg total RNA | 7.8 × 10^5 ± 7.9 × 10^4 molecules / μg total RNA | 9.9 × 10^5 ± 2.0 × 10^4 molecules / μg total RNA | 1.9 × 10^5 ± 3.4 × 10^4 molecules / μg total RNA | 1.0 × 10^5 ± 1.4 × 10^4 molecules / μg total RNA | possess mitogenic activity
